One block for each binder: values may come before it.
Columns and labels:
[1] = biological target: T1, recombinant human HER3 polypeptide (His-tagged) (human, UniProt P21860 20-643, biotinylated in the HER2 (Example 4.1) and EGFR (Example 8.7) dimerisation ELISAs); assay: ELISA, plate coated with human HER3, antibody serially diluted
T1 construct: Soluble recombinant human HER3 preparations of the ELISA, BLI and dimerisation assays are gathered here; also called His-tagged human HER3; human HER3 polypeptide (Sino Biological); not shown: His tag

[2] = biological target: T1, recombinant human HER3 polypeptide …; assay: plate ELISA of the EGFR:HER3 interaction: human EGFR-His coat, HER3-biotin 4 µg/ml and NRG 0.1 µg/ml with titrated antibody, avidin HRP detection; blocked partner EGFR-His
[3] = biological target: T2, human HER3 expressed at the cell surface (human, UniProt P21860 20-1342); assay: flow cytometry on HEK293 cells overexpressing human HER3 (HEK293 O/E H3), antibody 20 µg/ml, FITC anti-Fc secondary; same antibody on WT HEK293: 1.91
T2 construct: also called HEK293 HER3 O/E cells; HEK293 cells transfected with vector encoding human HER3

[4] = biological target: T3, human EGFR (human, UniProt P00533 25-645); assay: ELISA, plate coated with 0.1 µg/ml human EGFR, antibody serially diluted
T3 construct: also called human HER1 (EGFR) (Sino Biological)

[5] = biological target: T2, human HER3 expressed at the cell surface; assay: flow cytometry on HEK293 cells overexpressing human HER3 (HEK293 O/E H3), antibody 20 µg/ml, FITC anti-Fc secondary; same antibody on WT HEK293: 0.60
[6] = biological target: T2, human HER3 expressed at the cell surface; assay: as above; remark: listed apart in the source
[7] = biological target: T4, human HER2 (human, UniProt P04626 23-652); assay: ELISA, plate coated with 0.1 µg/ml human HER2, antibody serially diluted
T4 construct: also called human HER2 (Sino Biological)

B2: MM-121 (antibody, V domains shown)
VH: EVQLLESGGGLVQPGGSLRLSCAASGFTFSAYNMRWVRQAPGKGLEWVSVIYPSGGATRYADSVKGRFTISRDNSKNTLYLQMNSLRAEDTAVYYCARGYYYYGMDVWGQGTLVTVSS
VL: QSVLTQPPSASGTPGQRVTISCSGSDSNIGRNYIYWYQQFPGTAPKLLIYRNNQRPSGVPDRISGSKSGTSASLAISGLRSEDEAEYHCGTWDDSLSGPVFGGGTKLTVL
IC50 [2]: 54.2 nM

B3: anti-HER3 antibody clone LJM716 (antibody, V domains shown)
VH: EVQLLESGGGLVQPGGSLRLSCAASGFTFSSYAMSWVRQAPGKGLEWVSAINSQGKSTYYADSVKGRFTISRDNSKNTLYLQMNSLRAEDTAVYYCARWGDEGFDIWGQGTLVTVSS
VL: DIQMTQSPSSLSASVGDRVTITCRASQGISNWLAWYQQKPGKAPKLLIYGASSLQSGVPSRFSGSGSGTDFTLTISSLQPEDFATYYCQQYSSFPTTFGQGTKVEIK
% Parent (HER3 positive) [3]: 99.5%

The next lines start with results.

EC50 (read off the curve) [1]: ~6 ng/mL
B1: anti-HER3 clone 10D1_c91 IgG1 (antibody, V domains shown)
VH: QVQLQESGPGLVKPSQTLSLTCTVSGYYITSGYSWHWIRQHPGKGLEWIGSIRYSGGTDYNPSLKSLATISADTSKNQFSLKLSSVTAADTAVYYCARMTTAPWYPFDYWGQGTAVTVSS
VL: DIQMTQSPSSVSASVGDRVTITCKASQIVGSNVAWYQQKPGKAPMPLIYSASYGYSGVPSRFSGSGSGTDFTLTISSLQPEDFATYYCQQYSSHPLTFGQGTKLEIKR
notes: Humanised 10D1 variant, IgG1 kappa; also called [18]

% Parent (HER3 positive) [5]: 99% | % Parent (HER3 positive) [6]: 99%
B4: anti-HER3 clone 10D1 IgG1 (antibody)
heavy: not shown
light: DIVMTQSQKFMSTSVGDRVSVTCKASQIVGSNVAWYQQKPGQSPKPLIYSASYRYSGVPDRFTASGSGTDFTLTITNVQSEDLAEYFCQQYSSHPLTFGAGTKLELKRTVAAPSVFIFPPSDEQLKSGTASVVCLLNNFYPREAKVQWKVDNALQSGNSQESVTEQDSKDSTYSLSSTLTLSKADYEKHKVYACEVTHQGLSSPVTKSFNRGEC
notes: Human-mouse chimeric IgG1 kappa; also called 10D1P; 10D1 (parental)
binding result [4]: no binding (tested: about log -6.7 M (10 µg/ml per paragraph 597)) | binding result [7]: no binding (tested: about log -6.7 M (10 µg/ml per paragraph 597))

— patent US20250019461A1 (HUMMINGBIRD BIOSCIENCE PTE, published 2025)
